Measurements taken from patent US20250288652A1, “BACTERIOPHAGE LYSINE, CHIMERA THEREOF AND APPLICATION THEREOF” (priority 2021, published 2025).
“And” between values parts separate entries of the source, which are not always exact repeats. Identical values can stand only once.

Tests used:
[1] = tested on: Propionibacterium acnes; test: Minimum inhibitory concentration (MIC) determination, Example 6; format: cell-based; settings: listed as #10
Protocol: (§1) The minimal inhibitory concentration (MIC) determination method is as follows. First prepare a colony suspension in 0.9% saline to an OD600 of 0.05 to prepare an inoculum, which corresponds to 10^7 colony-forming units per mL (cfu/mL). The suspension was diluted 20 times in agar-free enhanced Clostridium medium (RCM) to an inoculum of 5*10^5 cfu/mL. Prepare 2-fold serial dilutions of PACL10 or vancomycin with 0.9% saline and add no more than one-tenth of the total culture. Cultures were grown anaerobically at 37° C. for 3 days. The MIC is the lowest concentration of PACL10 or vancomycin at which no growth of P. acnes can be observed with the naked eye. The minimum bactericidal concentration (MBC) was determined by subculturing the above cultures on enhanced Clostridium agar (RCA) plates containing 0.1% Tween-80. MBC is the lowest concentration of PACL10 or vancomycin at which no P. acnes colonies are seen on the enhanced Clostridium agar (RCA) plate.

[2] = tested on: P. acnes 34A strain; test: Time sterilization (time killing) test; format: cell-based, Propionibacterium acnes; settings: 50 mM sodium phosphate pH 6.0
Protocol: The time sterilization test method is as follows. Resuspend the P. acnes 34A strain colony in 0.9% saline to an OD600 of 0.05, which corresponds to 10^7 cfu/mL. The suspension was diluted 10-fold in 50 mM sodium phosphate (pH 6.0) to ˜10^6 cfu/mL. Add 0, 0.5×, 1×, 2× MIC of two-fold serial dilutions of PACL10 to the 34A strain, respectively. Ten-fold serial dilutions (0, 1, 2, 3 log) from the assay were plated on enhanced Clostridium agar (RCA) at each time point and incubated anaerobically at 37° C. for 3 days.

[3] = tested on: Propionibacterium acnes; test: MIC of selected lysin after single-step purification, Example 8; format: cell-based; settings: single-step purified lysin
Protocol: Express PACL 10, 390, 391, 392, 403 and 404 according to the method of Examples 1-4, and perform the following single-step purification: put Escherichia coli BL21 (DE3) containing each recombinant expression plasmid in the self-induction medium incubate at 37° C., 300 rpm for 3 hours, then at 18° C., 300 rpm for 16-18 hours. Cells were collected by centrifugation and lysed by homogenizatoin under high pressure. Clarified lysate from 1 L of E. coli culture medium expressing the protein of interest was loaded onto a 26 mm/200 mm column containing 70 mL of purification resin. The lysin was purified according to the conditions in Table 8-1, and the purity determination of the lyase after single-step purification is shown in FIG. 5. These lysin are used to determine the minimal inhibitory concentration (MIC).
The minimal inhibitory concentration (MIC) determination method is as follows. Propionibacterium acnes is streaked on Fortified Clostridium Agar (Fortified Clostridium Medium RCM with 1.5% agar, RCM was prepared according to the revised recipe, per liter—10 g acid hydrolyzed casein, 10 g beef extract, 3 g yeast extract, 5 g D—glucose, 5 g sodium chloride, 3 g sodium acetate, 0.5 g L-cysteine hydrochloride). Plates were incubated anaerobically at 37° C. for 72 hours. The inoculum for MIC determination was first prepared by resuspending single clones from RCA in 0.9% saline to an OD600 of 0.05, corresponding to 10^7 colony-forming units per milliliter (cfu/mL). The suspension was diluted 20-fold in RCM to an inoculum of 5*10^5 cfu/mL. Two-fold serial dilutions of each lyase were prepared in 0.9% saline and added not to exceed one-tenth of the total culture volume. Cultures were grown anaerobically at 37° C. for 48-72 hours. The MIC is the lowest concentration of lyase at which no growth of P. acnes can be observed with the naked eye.

[4] = tested on: Propionibacterium acnes; test: Minimum bactericidal concentration (MBC) determination, Example 6; format: cell-based; settings: listed as #10
Protocol: as §1

[5] = tested on: biofilm-associated P. acnes strain 10; test: Killing of biofilm-associated P. acnes (CFU count); format: cell-based, Propionibacterium acnes; settings: strain 10 biofilm, treated overnight at 25° C. under anaerobic conditions
Protocol: Strain 10 with an OD600 of 1.0 was added to a 96-well polystyrene plate to inoculate the biofilm overnight in an anaerobic gas mixture. The supernatant was removed and the wells were gently rinsed with 0.9% NaCl. Biofilm formation medium (RCM+5% glucose) was added to allow biofilm growth overnight in the anaerobic gas mixture. The medium was removed and the wells were gently rinsed with 0.9% NaCl. Biofilms were then treated with buffer or PACL403 overnight at 25° C. under anaerobic conditions. The buffer or PACL403 was removed and the wells were rinsed with 0.9% NaCl. Resuspend in 0.9% NaCl, plate on RCM agar and count biofilm-associated CFU.

B1: PACL10: phage lysin, amino acid sequence SEQ ID NO: 10; 29.4 kDa (protein)
chain: MTFIQAAHHSSGSNLPPTRVVIHATCPELGFPRASAKGRAVSTARYFQSAISGGSAHYVVDVGETVQCLAEDVIAWHAPPNSRSLGIEICADGGSATSFKNPNVRYSRAQWLSPQVWPAVLRAAALTRQMCQKYGIPVTKLSASDLKAGKKGICGHVDVSNAWHQSDHDDPGPDFPWAEFMAAVKGGATNPDELELTVSQFSDLTKRLQGMQEQTHHDLGVVQTKLATMDTVKNPRTGAKWSLKDAIWSIWYYVLENRDRIAALEKKVK
modifications: PACL10
notes: 29.4 kDa
- MIC ([1]; clade IA1, strain 1): 6.4 μg/mL and 0.218 μM
- MIC ([1]; clade IA1, strain 5): 12.8 μg/mL and 0.436 μM
- MIC ([1]; clade IA1, strain 7): 6.4 μg/mL and 0.218 μM
- MIC ([1]; clade IA1, strain 15): 6.4 μg/mL and 0.218 μM
- MIC ([1]; clade IA1, strain 27): 12.8 μg/mL and 0.436 μM
- MIC ([1]; clade IA2, strain 10): 6.4 μg/mL and 0.218 μM
- MIC ([1]; clade IA2, strain 14): 6.4 μg/mL and 0.218 μM
- MIC ([1]; clade IA2, strain 17): 6.4 μg/mL and 0.218 μM
- MIC ([1]; clade IA2, strain 31): 12.8 μg/mL and 0.436 μM
- MIC ([1]; clade IA2, strain 33A): 12.8 μg/mL and 0.436 μM
- MIC ([1]; clade IB, strain 13): 12.8 μg/mL and 0.436 μM
- MIC ([1]; clade II, strain 34A): 6.4 μg/mL and 0.218 μM
- time for cfu/mL to drop below the detection limit ([2]; at 2× MIC 12.8 μg/mL): ≤ 2 h
- time for cfu/mL to drop below the detection limit ([2]; at MIC 6.4 μg/mL): ≤ 3 h
- MIC of selected lyases relative to Propionibacterium acnes ([3]; clade IA1, strain 1): 8 µg/mL
- MIC of selected lyases relative to Propionibacterium acnes ([3]; clade IA1, strain 5): 8 µg/mL
- MIC of selected lyases relative to Propionibacterium acnes ([3]; clade IA1, strain 7): 8 µg/mL
- MIC of selected lyases relative to Propionibacterium acnes ([3]; clade IA2, strain 10): 8 µg/mL
- MIC of selected lyases relative to Propionibacterium acnes ([3]; clade IA2, strain 17): 8 µg/mL
- MIC of selected lyases relative to Propionibacterium acnes ([3]; clade IA2, strain 33): 8 µg/mL
- MIC of selected lyases relative to Propionibacterium acnes ([3]; clade II, strain 34): 8 µg/mL
- MBC ([4]; clade IA1, strain 1): 25.6 μg/mL and 0.871 μM
- MBC ([4]; clade IA1, strain 5): 12.8 μg/mL and 0.436 μM
- MBC ([4]; clade IA1, strain 7): 12.8 μg/mL and 0.436 μM
- MBC ([4]; clade IA1, strain 15): 25.6 μg/mL and 0.871 μM
- MBC ([4]; clade IA1, strain 27): >25.6 μg/mL and >0.871 μM
- MBC ([4]; clade IA2, strain 10): 12.8 μg/mL and 0.436 μM
- MBC ([4]; clade IA2, strain 14): >25.6 μg/mL and >0.871 μM
- MBC ([4]; clade IA2, strain 17): 25.6 μg/mL and 0.871 μM
- MBC ([4]; clade IA2, strain 31): >25.6 μg/mL and >0.871 μM
- MBC ([4]; clade IA2, strain 33A): >25.6 μg/mL and >0.871 μM
- MBC ([4]; clade IB, strain 13): 25.6 μg/mL and 0.871 μM
- MBC ([4]; clade II, strain 34A): 6.4 μg/mL and 0.218 μM

B2: PACL403: chimeric lysin, amino acid sequence SEQ ID NO: 271 (protein)
chain: MTFIQAKHHGGHNNPPVTRLVIHATCPDVGYPSASRAGRAVSTAHYFQETTRPASAHYICDISTTVQCLSEETVGYHAPPNSHSIGIEICADGGSHASFSNPAHAYTREQWLSPQVWPAVERAAMLARGICQRHNIPIRRLSIADVKAGKRGICGHNEVSEAFHQSDHDDPGPYFPWDGFIALVNGHSAPSRQEELTVSDGGEVRTPGQQDTKPSVPTPSLTEIGDQDMNGCYYNLNSKTRTYLIFDSRSGFYHEFSQGNGNGPMSPDYVNPIAKGWDTGSWPAISPGHAKVLKAALDKVRKGI
modifications: PACL403
- bactericidal activity against biofilm-associated P. acnes [5]: killed biofilm-associated P. acnes
- MIC of selected lyases relative to Propionibacterium acnes ([3]; clade IA1, strain 1): 16 µg/mL
- MIC of selected lyases relative to Propionibacterium acnes ([3]; clade IA1, strain 5): 16 µg/mL
- MIC of selected lyases relative to Propionibacterium acnes ([3]; clade IA1, strain 7): 16 µg/mL
- MIC of selected lyases relative to Propionibacterium acnes ([3]; clade IA2, strain 10): 8 µg/mL
- MIC of selected lyases relative to Propionibacterium acnes ([3]; clade IA2, strain 17): 8 µg/mL
- MIC of selected lyases relative to Propionibacterium acnes ([3]; clade IA2, strain 33): 8 µg/mL
- MIC of selected lyases relative to Propionibacterium acnes ([3]; clade II, strain 34): 16 µg/mL
